{"source": "paper PMC2561067", "about": "(2008)", "binders": {"B1": {"name": "HWTX-XI (protein)", "chain": "IDTCRLPSDRGRCKASFERWYFNGRTCAKFIYGGCGGNGNKFPTQEACMKRCAKA"}, "B2": {"name": "trypsin (protein)", "chain": "SSGTSYPDVLKCLKAPILSDSSCKSAYPGQITSNMFCAGYLEGGKDSCQGDSGGPVVCSGKLQGIVSWGSGCAQKNKPGVYTKVCNYVSWIKQTIASN"}}, "key": {"[1]": {"target": "B2", "assay": "ITC"}, "[2]": {"target": "BPTI (Bos taurus, UniProt P00974)", "assay": "ITC"}}}
{"binder": "B1", "values": [{"measurement": "Kd", "setting": "[1]", "result": 0.23, "unit": "nM"}]}
{"binder": "B2", "values": [{"measurement": "Kd", "setting": "[2]", "result": 6.57, "unit": "nM"}]}
